In publication PMC4491177, “Co-translational capturing of nascent ribosomal proteins by their dedicated chaperones” (Nature Communications, 2015):

Columns and labels:
[1] = biological target: CtSqt1.52C (WD-repeat β-propeller domain of ctSqt1); experiment: isothermal titration calorimetry (ITC), C. thermophilum; format: binding, Chaetomium thermophilum
Procedure: ITC experiments were performed on a MicroCal ITC 2000 instrument (GE Healthcare). The following peptides, corresponding to the N-terminal 19 (without N-terminal methionine) or 20 amino acids of S. cerevisiae and C. thermophilum Rpl10, were synthesized with a free acid group at the C terminus (peptides&elephants): Rpl10(1–20) NH2-[…]-COOH, Rpl10(2–20) NH2-[…]-COOH, ctRpl10(1–20) NH2-[…]-COOH and ctRpl10(2–20) NH2-[…]-COOH. Peptides (1 mg each) were dissolved in the appropriate volume of gel-filtration buffer (20 mM HEPES–NaOH (pH 7.5), 200 mM NaCl, 20 mM KCl and 20 mM MgCl2), which was used for the purification of ScSqt1.53C and ctSqt1.52C, to obtain 1 mM stock solutions. Concentrations of proteins were determined by measuring the A280 using a NanoDrop Lite spectrophotometer (Thermo Scientific). For determination of the C. thermophilum Sqt1/L10-N binding, 200 μl of ctSqt1.52C (10 μM) was added to the sample cell and 2 μl of 100 μM solutions of the peptides was titrated in at 25 °C. For determination of the S. cerevisiae Sqt1/L10-N binding, 200 μl of ScSqt1.53C (100 μM) was added to the sample cell and 2 μl of 1 mM solutions of the peptides were titrated in at 15 °C. ITC data were processed using the Origin ITC Software (OriginLab) and thermodynamic parameters were obtained by fitting the data to a One Set of Sites binding model.

[2] = biological target: T1, Rpl5 (endogenous, nascent) (S. cerevisiae (endogenous in yeast cells)) (UniProt P26321)
T1 sequence: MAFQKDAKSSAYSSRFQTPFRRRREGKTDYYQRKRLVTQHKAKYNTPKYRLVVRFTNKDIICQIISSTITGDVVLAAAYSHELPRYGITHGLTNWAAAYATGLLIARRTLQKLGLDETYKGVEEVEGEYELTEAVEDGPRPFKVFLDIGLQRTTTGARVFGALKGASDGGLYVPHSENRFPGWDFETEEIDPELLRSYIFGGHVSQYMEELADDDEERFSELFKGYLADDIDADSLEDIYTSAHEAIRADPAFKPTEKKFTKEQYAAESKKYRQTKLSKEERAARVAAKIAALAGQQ

[3] = biological target: T2, Rps3 (endogenous, nascent) (S. cerevisiae (endogenous in yeast cells)) (UniProt P05750)
T2 sequence: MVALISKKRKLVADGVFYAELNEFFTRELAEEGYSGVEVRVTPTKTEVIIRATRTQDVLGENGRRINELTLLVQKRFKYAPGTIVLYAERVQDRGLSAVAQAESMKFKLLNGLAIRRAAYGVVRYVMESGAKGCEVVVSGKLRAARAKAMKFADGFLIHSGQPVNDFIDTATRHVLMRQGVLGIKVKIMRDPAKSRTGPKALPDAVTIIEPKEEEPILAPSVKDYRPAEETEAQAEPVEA

Rpl10 (endogenous) = biological target: T3, Rpl10 (endogenous) (S. cerevisiae (endogenous in yeast …, UniProt P41805 1-221)); experiment: cell-based or functional assay
T3 sequence (looked up): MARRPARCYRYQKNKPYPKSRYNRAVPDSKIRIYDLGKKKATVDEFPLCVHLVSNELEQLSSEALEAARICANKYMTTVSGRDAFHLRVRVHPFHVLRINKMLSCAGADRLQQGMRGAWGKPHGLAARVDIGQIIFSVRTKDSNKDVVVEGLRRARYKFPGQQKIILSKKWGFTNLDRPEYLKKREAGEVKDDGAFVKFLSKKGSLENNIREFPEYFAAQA

Rpl3 (endogenous) = Rpl3 (endogenous) (S. cerevisiae (endogenous in yeast …, UniProt P14126 1-387)); experiment: cell-based or functional assay
Rpl3 (endogenous) (S. cerevisiae, sequence (P14126 whole entry): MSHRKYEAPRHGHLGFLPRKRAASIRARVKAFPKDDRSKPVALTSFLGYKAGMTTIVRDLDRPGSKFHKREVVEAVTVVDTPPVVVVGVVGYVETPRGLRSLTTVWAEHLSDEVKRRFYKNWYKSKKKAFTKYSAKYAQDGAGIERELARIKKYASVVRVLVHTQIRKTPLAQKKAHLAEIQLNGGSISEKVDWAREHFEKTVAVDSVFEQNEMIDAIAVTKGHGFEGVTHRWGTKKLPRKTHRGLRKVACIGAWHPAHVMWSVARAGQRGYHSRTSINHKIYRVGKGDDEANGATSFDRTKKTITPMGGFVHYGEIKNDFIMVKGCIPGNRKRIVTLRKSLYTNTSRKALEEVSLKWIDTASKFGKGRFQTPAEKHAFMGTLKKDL

Molecule: H-MARRPARCYRYCKNKPYPKS-OH (cysteine pairing not given here) [CtL10-N(1-20), N-terminal 20 amino acids of C. thermophilum Rpl10]
- Kd ([1]; 10 μM ctSqt1.52C in cell, 2 μl of 100 μM peptide titrated, 25 °C, 20 mM HEPES–NaOH (pH 7.5), 200 mM NaCl, 20 mM KCl, 20 mM MgCl2, One Set of Sites, read-out: dissociation constant (Kd)): ~0.442 µM
- effect of Met1 on the interaction ([1]; ctSqt1): did not abolish the interaction completely

B1: Syo1-FTpA (natural protein)
chain: MGRSKKRSRASSSRLNPLRKAGSNDNNKDTNVVNKKLQPLLQNLSSVVPNDRSIALSSISVLCEDAHMRQLLLKEKLVPIILNKLLNDSNSDIVVESFGLLRNLSLEEGYDVSIYLWRSDIWTSITSNFGRIVESLSALQAAEQQPQLKPAGKSKIESKRLLFDFADNLLSLVVALSNGSDDILNEILTESKINEIFQVISQLLKYGVEKLPINLFNTTLDLIYDLSSESFEFIDHVSNNELLSQFLNGLSPALHPQANELTKVLIEGIHCQFLDMKITYDQCNKMIHSVCHSINNIDPVQLVNDINNPVEIGPATSKDESSKVITKIKDYNAKRNESMIKLQSIEIAIDLITAIIEIVASKYESPESQEVAIPEELINTLTNFLPHVFMILKDTFTSRILIGWNNLIWLFVSLSLTELSGELLTTLWSYVTQLDSQDDLSIKIGRMGCIWALLKLIFPDGAFESENRALINVQMLNNSGFARGIIEEFQNNNDLELQQKCINVLSTYAMIQGQIDANKEIGQFFIQTLTQLNVRPEILIEMTNSLFQIYGDASYDYNEPIFVRGGFLSILKDQVVPNLRQQFKMVDKNKNPELKERCHDCFTTLDSFIHYKMNENSTNQ
- enrichment of the RPL5 mRNA in the Syo1-FTpA purification (IgG-sepharose pull-down from cycloheximide-treated cells, TEV eluate, real-time qRT–PCR) [2]: 100 fold

B2: Yar1-TAP (natural protein)
chain: MGLHSEPLDQEDQDTIILDARAGDLDSLKDIFTTLVSPELLSTCKESESDSTALHMAAANGHIETVRYILETVSRANSAEDLKAFVNEVNKTGNTALHWASLNGKLDVVKLLCDEYEADPFIRNKFGHDAIFEAENSGKEEVETYFLKKYDVEPEDDEEDTQTEGKNSVQITKGTEIEQVTKEATEALREETEKLNINKD
- enrichment of the RPS3 mRNA in the Yar1-TAP purification (IgG-sepharose pull-down from cycloheximide-treated cells, TEV eluate, real-time qRT–PCR) [3]: 100 fold

B3: Sqt1-TAP (natural protein, S. cerevisiae, UniProt P35184 1-431, looked up)
chain: MEPQEEFITTEEVEQEIVPTVEVEQDVPVDIEGENDDDDEMMNDDEEALEVDMSNNSLTYFDKHTDSVFAIGHHPNLPLVCTGGGDNLAHLWTSHSQPPKFAGTLTGYGESVISCSFTSEGGFLVTADMSGKVLVHMGQKGGAQWKLASQMQEVEEIVWLKTHPTIARTFAFGATDGSVWCYQINEQDGSLEQLMSGFVHQQDCSMGEFINTDKGENTLELVTCSLDSTIVAWNCFTGQQLFKITQAEIKGLEAPWISLSLAPETLTKGNSGVVACGSNNGLLAVINCNNGGAILHLSTVIELKPEQDELDASIESISWSSKFSLMAIGLVCGEILLYDTSAWRVRHKFVLEDSVTKLMFDNDDLFASCINGKVYQFNARTGQEKFVCVGHNMGVLDFILLHPVANTGTEQKRKVITAGDEGVSLVFEVPN
- enrichment of the RPL10 mRNA in the Sqt1-TAP purification (IgG-sepharose pull-down from cycloheximide-treated cells, TEV eluate, real-time qRT–PCR) (Rpl10 (endogenous)): ~25 fold

B4: NTAP-Rrb1 (natural protein, S. cerevisiae, UniProt Q04225 1-511, looked up)
chain: MSKRSIEVNEEQDRVVSAKTESHSVPAIPASEEQDAPKNDLEEQLSDEFDSDGEIIEIDGDDEINDEDDLRKKQEEAETLVQKDQSEGNKEKIQELYLPHMSRPLGPDEVLEADPTVYEMLHNVNMPWPCLTLDVIPDTLGSERRNYPQSILLTTATQSSRKKENELMVLALSNLAKTLLKDDNEGEDDEEDDEDDVDPVIENENIPLRDTTNRLKVSPFAISNQEVLTATMSENGDVYIYNLAPQSKAFSTPGYQIPKSAKRPIHTVKNHGNVEGYGLDWSPLIKTGALLSGDCSGQIYFTQRHTSRWVTDKQPFTVSNNKSIEDIQWSRTESTVFATAGCDGYIRIWDTRSKKHKPAISVKASNTDVNVISWSDKIGYLLASGDDNGTWGVWDLRQFTPSNADAVQPVAQYDFHKGAITSIAFNPLDESIVAVGSEDNTVTLWDLSVEADDEEIKQQAAETKELQEIPPQLLFVHWQKEVKDVKWHKQIPGCLVSTGTDGLNVWKTISV
- enrichment of the RPL3 mRNA in the NTAP-Rrb1 purification (IgG-sepharose pull-down from cycloheximide-treated cells, TEV eluate, real-time qRT–PCR) (Rpl3 (endogenous)): ~100 fold
